Here are results for 33 sequences from the DeepSol protein solubility set.

A short description of the data set: soluble on expression in E. coli; label from the status in PepcDB or PDB records.
Consider “NNPVSETITRKHVDKDQIRAFGVVAEDNAQLEKGSLVMMGGKYWFVVNPEDSAKLTGILKAGLDKPFQIVEDTPSYARHQALPVKLESPGSQNFSTEGLCLRYDTDKPADIAKLKQLGFEAVKLDNRTIYTRCVSAKGKYYATPQKLNADYHFEQSVPADIYYTVTEEHTDKSKLFANILYTPP”, for which the “soluble on expression in E. coli” value is reported as “not soluble”.

With “NPNPISIPIDLSQAGSVVEKEVKIEESWSYHLILQFAVHDRKEDGGLDGKRVWKFLGFNSYDPRDGKQVGYVDYRLAKSELGDLIDETYDCDGTVVPIKITIHQINQDNTKKLIADNLYMTKGNGSGAYTRDITTISLDKGKYIFRIENIEAFSEMIGRKVDFTIYINKRDK”, the “soluble on expression in E. coli” value was “soluble”.

For the sequence “NPTEQLLTRFNQAAQGDTGLVDTVHDELSQLVQKQGATPVTLVYLGSSETLQGRDAFMPWNKMKFTERGLATIQKGLDLMANQPMPIQEQQRLQGLPEYQ”, the “soluble on expression in E. coli” value is “not soluble”.

As to “NRLLSKYDPQKEAELRTWIEGLTGLSIGPDFQKGLKDGTILCTLMNKLQPGSVPKINRSMQNWHQLENLSNFIKAMVSYGMNPVDLFEANDLFESGNMTQVQVSLLALAGKAKTKGLQSGVDIGVKYSEKQER”, the “soluble on expression in E. coli” value is “soluble”.

With “NRMKLMIVGNTGSGKTTLLQQLMKTKKSDLGMQSATVGIDVKDWPIQIRDKRKRDLVLNVWDFAGREEFYSTHPHFMTQRALYLAVYDLSKGQAEVDAMKPWLFNIKARASSSPVILVGTHLDVSDEKQRKACMSKITKELLNKRGFPAIRDYHFVNATEESDALAKLRKTIINESLNFKIRDQ”, the “soluble on expression in E. coli” value is “soluble”.

In the case of “NRSLNELSLSDILIAADVEGGLHAVDRRNGHIIWSIEPENFQPLIEIQEPSRLETYETLIIEPFGDGNIYYFNAHQGLQKLPLSIRQLVSTSPLHLKTNIVVNDSGKIVEDEKVYTGSMRTIMYTINMLNGEIISAFGPGSKNGYFGSQSVDCSPEEKIKLQECENMIVIGKTIFELGIHSYDGASYNVTYSTWQQNVLDVPLALQNTFSKDGMCIAPFRDKSLLASDLDFRIARWVSPTFPGIIVGLFDVFNDLRTNENILVPHPFNPGDHESISSNKVYLDQTSNLSWFALSSQNFPSLVESAPISRYASSDRWRVSSIFEDETLFKNAIMGVHQIY”, the “soluble on expression in E. coli” value is listed as “soluble”.

Regarding “NTDYYGLDYALSFNQVEIEEKRIVIAGSGGIARTVIRYMLDHGAHRVDVLTRNAQNARRNLDIPGIGLHENIDEDYDIYVNCTPLGTLGDGDPFSTVDFRSGRTGIDLVYNPPDTPFLKRMRNAGGRTVSGLDVFIGQGLRTLELVFGIRPDSIFREYAVEALNEIR”, the “soluble on expression in E. coli” value is on record as “not soluble”.

For the sequence “NTGFDINGMVSKIVSAERVPKQQRIDNERTNIDTSISAYGRLRESLDTMKNLMTQFRQEKAFAVRKVDTSNEQVVSATATTEAIAGNYSVDVLQLAQ”, the “soluble on expression in E. coli” value is “not soluble”.

Turning to “NTQITIKMEPDTQALEEVVVIGYGAVKKRDLTGAVSSVKNEDITLTPATNPMQALQGRVAGLDITQASGQPGEGPKLQLRGTRSFTASGDPMFIIDGMPGDYSTLNPNDIESIEVLKDASSTAVYGAAGANGVIIITTKSGKAGK”, the “soluble on expression in E. coli” value is on record as “not soluble”.

With “NVAYPLGEGLLSFAESLESQKIHFTTEVITSRIEPANRYVAEKLRITPGQDILYLERLRSIGDEKAMLIENRINIELCPGIVEIDFNQHNLFPTIESLSKRKIRYSESRYAARLIGNERGHFLDISEDAPVLHLEQLVFFSRELPVEFGNVWLKGNKYYLGTVLQRRELS”, the “soluble on expression in E. coli” value is reported as “soluble”.

As for “PAGHADDAMHSYFTFVAPDRGLAKVAAAQAAALRPFLAGTPLADLPLLSSVSPLKAGGRAGPDHYTDVPAGPLSMRHVADLHMFPNELRALVLTGADLREWLEMAAGVFLSPAPAGACDMLLDTSVPGHNFDSLYGLTYEIDPRAPPRYDIGGRLIADENRRIGSLCHNGTPVDDRQKFVVALNNYRANGGGHFLMLDRGEPVPLPSLRIQSALHDYLSGRLPADPLEQAPHPWRLAPL”, the “soluble on expression in E. coli” value was “not soluble”.

With “PDTSHYALLSNRIVNAVKQYRSQRALEASKDRLSLFIDQSPLGFVEYNQDFEIVRVNETLTEIFGYTETELLGETWETFVSSESYDDVDAVTSALSEASGGYHSVNENVRKDGERIVVEWHNRLVTDDS”, the “soluble on expression in E. coli” value is “not soluble”.

“PEPAQQQAPVEKPKKKAKLEVIGDDVVSIMVSLRWLEFLLDNYGPENTLDVLDYYESLGWISATVKEQMMKYAKMTGVMNPAQEYKIKPSIQDHIINMLFIEKLRGEEINRDLIEALEREFRTIRKGVDELYGI”: the “soluble on expression in E. coli” value is listed as “not soluble”.

Turning to “PEPGKKPVSAFSKKPRSVEVAAGSPAVFEAETERAGVKVRWQRGGSDISASNKYGLATEGTRHTLTVREVGPADQGSYAVIAGSSKVKFDLKVIE”, the “soluble on expression in E. coli” value is reported as “soluble”.

Consider “PEWDEYIAEQIESGALGEDEGAEFLERWMVQKQHPLDINTLTREDLEQFPFLNEFQIRRFLLYRHAHPEGFDSIWVLSEIAGWDRRTCLLLWPMLTVQKRSESAAASFREILSYARHDVSVHTDAILQQQEGYRPDSRHPYRGDPWGGGLRWSYAMGNRFSLGLTASKDRGEPAFDKRRKGFDSYSAHFFMEGKGAVRAVALGDYRIG”, for which the “soluble on expression in E. coli” value was “not soluble”.

Turning to “PFKKRRTEDEIRKQCPWATLGRKGGRQPNIITSLELDSAVMEQNNLRFQKKYAEIEANEVRYEEYQTEDADYILVAFGSSARICNKTVQLARQQGIKAGILRPITLWPFPTKEIAKLADRAKGFLVAELNAGQMIEDVRLAVNGKVPVEHYGRMGGMLFSPDEILQALKEKVIK”, the “soluble on expression in E. coli” value is listed as “not soluble”.

As for “PHFLILNGPNVNRLGSREPEVFGRQTLTDIETDLFQFAEALHIQLTFFQSNHEGDLIDAIHEAEEQYSGIVLNPGALSHYSYAIRDAVSSISLPVVEVHLSNLYAREEFRHQSVIAPVAKGQIVGLGAEGYKLAVRYLLSQQG”, the “soluble on expression in E. coli” value is “soluble”.

As to “PIVGRIIHIENQQLNEYTGNYSSFENQRAQKMMLQQAMFEKQQKQMSHMQSYIDRFRYKASKARQAQSRIKALERMEKVLPAQFDNPFSFEFRQPAALPNPIMMMDDVSAGYGDNLILEKIRLNLVP”, the “soluble on expression in E. coli” value is listed as “not soluble”.

PKQRCRAPACDHFGNAKCNGYCNECFQFKQMYG: the “soluble on expression in E. coli” value is “soluble”.

For “PLPATANSHEYLLDNGLKLVVKEDHRSPVVIQQVWYKAGSMDEVNGTTGVAHALEHMMFKGTDSVLAGEFSRKIAAIGGKENAFTSRDYTAYYQQLHQRHLPMAMELESDRMHNLQLTEEAFAKEIQVVMEERRLRTDDQAHSLLYEKMMATAFQTHPYRRPVIGWMNDLENMQVNDARDWYQRWYAPNNAVLVVVGDVDPENVFVLAKKYYGRF”, the “soluble on expression in E. coli” value is “not soluble”.

Take “PLQEERLQRLQDRMVVPFDETRPDHQESLKALWNVAFPNVHLTGLVTEQWKEMGWQGPNPSTDFRGCGFIALENLLFSARTYPVNYSLLLKQRGDRAKWEYPFAVAGINISFMLIQMLDLQNNQDERAFDVLYCIAFAMMDAQWLAMHASYMEFNEVLQATRNQLERELSLDDIHRIQDLPAYNLLFQ”: the “soluble on expression in E. coli” value is “not soluble”.

For “PMMPPVGVQASILSHDTIRITWADNSLPKHQKITDSRYYTVRWKTNIPANTKYKNANATTLSYLVTGLKPNTLYEFSVMVTKGRRSSTWSMTAHGTTFEL”, the “soluble on expression in E. coli” value is given as “soluble”.

For the sequence “PQFEKIEGRMIRILYLLVKPESMSHEQFRKECVVHFQMSAGMPGLHKYEVRLVAGNPTDTHVPYLDVGRIDAIGECWFASEEQYQVYMESDIRKAWFEHGKYFIGQLKPFVTEELV”, the “soluble on expression in E. coli” value is listed as “soluble”.

Turning to “PQPGAARGLGRVAYADARQHRDILQSLVRALNGSRRRIWLATPYFLPTWKVRRALRKAAQRGVEVRLLLAGRLTDHAPVRYAGQRYYPRLLRAGVRIHEYQPRFLHLKMVMVDDWVSVGSCNFDHWNLRFNLDANLEALDPDFTNEAAASLLADFADSREVTLAMWRARPLWMR”, the “soluble on expression in E. coli” value is given as “not soluble”.

Turning to “PRRLEPLIEDGLIDEVVRPLMSGKEASVYVVRCGDSLRCAKVYKEANKRSFRQAAEYQEGRKVRNSRQARAMAKGSKYGRREQEEAWQNAEVAALFRLAGAGVRVPKPYDFLDGVLLMELVADADGDAAPRLNDVTLEPDEARRHHAFLIRQIVAMLCAGLVHGDLSEFNVLLGPDGPVIIDLPQAVDAAGNNHAFSMLERDVGNMAAYFGRFAPELRQTRYAKEMWALYEAGELTAETPLSGTFVEAEEAADVRAVLREIEAAQREEARRQALRQADDAPRGEREE”, the “soluble on expression in E. coli” value was “not soluble”.

Take “PTSLEKLPSADVKGQDLYKTQPPRSDAQGGKAYLKWICITCGHIYDEALGDEAEGFTPGTRFEDIPDDWCCPDCGATKEDYVLYEEK”: the “soluble on expression in E. coli” value is given as “soluble”.

Turning to “PVAVYTTHDPQALKITGNRLSCEWLRIPPGTNLSKSAHEGERPEFFKLFKDGVEIPPEKMPSQLSAAGIEVNDCELDIVSADGRIRHVLGNARPLRDEN”, the “soluble on expression in E. coli” value was “not soluble”.

As to “PVKVVVGKTFDAIVMDPKKDVLIEFYAPWCGHCKQLEPIYTSLGKKYKGQKDLVIAKMDATANDITNDQYKVEGFPTIYFAPSGDKKNPIKFEGGNRDLEHLSKFIDEHATKRSRTKEEL”, the “soluble on expression in E. coli” value is “soluble”.

For the sequence “PVLFLALPALAQERKKVGVVLSGGGAKGVAHIQALKVIEEAGIPIDYIVGTSMGSIIGGLYSIGYTPQQLDSMVRKQDWMFLLSDRVKRSAMSLNEREKSEKYVFSFPFTKSPKDAVSGGIIKGQNLANLFTELTVGYHDSVDFNKLPIPFACVSQNIVNGEQIVFHNGILATAMRASMAIPGVFTPVRKDSMILIDGGMINNYPVDVARSMGADIIIGVDVQNNLKGID”, the “soluble on expression in E. coli” value is on record as “not soluble”.

For the sequence “QALIKEARLTPKPGLVDSTNNGSHQDMSLSTFEQSAIALRPFFTQFVLMGIETTNLPDSHILSKIRPLGLQAEQAMFVATNQVNTHKGAIFAFGLVCTALGRHFSRWQNKMMSSPSFEISQDTTGISLISETVARFTQGITDELKNYSKNQPLTAGITLYQQYGFTGARGEAEKGFPLVQQAVVFILSQAESEMRWYWALLYLMANNNDTNIVHRGGINGLQFIQDEAHKRLGNAKNLQNANALMASLREFDDDCIARNLSPGGSADLLALTIFFLSLLYC”, the “soluble on expression in E. coli” value is “not soluble”.

Turning to “QAVGGKIADDAQKVAGLYAEKKRTNWTQANGVAGKISHKIQSLLGMRDAGSRVQAFVAFMADGKGRPGATMLDLGDGWMRATRVIKGEAALIDFQCDSDGKVVDARHPGRFPVLPQGNEREAFKTVLQELKFRGAETLSKVPVYYVNRNTRGYVIPTHGYVVAGHPNRGRKSGAVLYGVGGDPKRGPVALDEKLLGHLVGRSDSKTSSKLSAPVKAAISALAGASFATREDFYDAYCAVRGDAVDPLERHNEISSIYRLLPLSTMEMWPKKADDYRVARPAAPERDLRAFENLPKDIGRKAQLKKVSNVDSIDLLEAKRQFTLHQLYQDEMLGRNGTGVPSADFKPKVDAQRRDQLVASTPKFQRLPPHTTDKVGNCNTGASSLLQRAVDTYTEKNNLPPEKVTAASIFGIGSSHRLAIWDPLDGSSSNKSSKDR”, the “soluble on expression in E. coli” value is listed as “not soluble”.

For the sequence “QEKSARDLMIAVDLSGSMAVEDFTLPIATNELTNRAKNDTDSSATKSSTNDTGKGEKVNRLVAVKHVLNAFVKSREHDRLGLILFGDAPYLQAPFTDDIATWQALLNESDIGMAGQSTAFGDAIGLAISVFQQSDTQNRVLIVLTDGNDTASKVPPVEAAKVAAARDIKIYTIAIGDPSAVGEEKVDLEVLQAMAEITQGKSFQALNSEELLKVYAEI”, the “soluble on expression in E. coli” value is “not soluble”.

On to “QIVDCWETWSRCTKWSQGGTGTLWKSCNDRCKELGRKRGQCEEKPSRCPLSKKAWTCICY”, for which the “soluble on expression in E. coli” value is “soluble”.
